Assays:
Experiment in all cases: BLI (Octet RED96), antagonist captured on biosensor, ligand in solution
[1] = biological target: T1, human RANKL (receptor activator of nuclear factor-kappa B ligand) (human, UniProt O14788 140-317, limits assumed)
T1 construct: also called OPGL
T1 sequence (looked up): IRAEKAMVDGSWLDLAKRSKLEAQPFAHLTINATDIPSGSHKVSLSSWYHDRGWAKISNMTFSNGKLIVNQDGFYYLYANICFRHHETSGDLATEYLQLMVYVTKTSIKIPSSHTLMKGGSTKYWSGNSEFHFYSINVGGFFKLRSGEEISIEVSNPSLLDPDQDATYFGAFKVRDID
Description: (§1) Binding activities of individual bifunctional antagonists to human ligands or target proteins were measured by biolayer interferometry (BLI) using Octet RED96 (FortéBIO, Pall Corporation, USA). Binding analysis was performed by first capturing the polypeptide bifunctional antagonists to biosensors followed by two baseline steps in 1× kinetic buffer. The bifunctional antagonists-captured biosensors were then submerged in wells containing different concentrations of specific individual ligand, such as RANKL, Activin A, activin B, Activin AB, myostatin, TGF-β1, TGF-β2 or TGF-β3, for 6 min association followed by 6 min of dissociation time in 1× kinetic buffer. The bifunctional antagonists-captured sensors were also dipped in wells containing 1× kinetic buffer to allow single reference subtraction in order to compensate for the natural dissociation of captured bifunctional antagonists. The binding sensorgrams were collected using the 8-channel detection mode on the Octet RED96 biosensor. Data were acquired and analyzed using the data acquisition software v11.1 (FortéBIO, Pall Corporation, USA).

human Activin A = biological target: T2, human Activin A (human, UniProt A4D1W7 311-426, Activin A is a disulfide-linked homodimer of the inhibin beta A mature chain. One copy is given.)
T2 sequence: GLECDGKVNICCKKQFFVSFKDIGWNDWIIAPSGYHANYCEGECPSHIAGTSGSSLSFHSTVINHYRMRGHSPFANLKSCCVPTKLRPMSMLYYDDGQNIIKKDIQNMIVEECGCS
Description: as §1

human TGF-β1 = human TGF-β1 (human, UniProt P01137 279-390)
Sequence of human TGF-β1 (P01137 279-390 limits assumed): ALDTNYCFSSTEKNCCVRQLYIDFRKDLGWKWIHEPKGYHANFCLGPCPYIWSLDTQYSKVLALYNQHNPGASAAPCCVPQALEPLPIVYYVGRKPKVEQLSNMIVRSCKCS
Description: as §1

human TGF-β3 = biological target: T3, human TGF-β3 (human, UniProt P10600 301-412)
T3 sequence (looked up): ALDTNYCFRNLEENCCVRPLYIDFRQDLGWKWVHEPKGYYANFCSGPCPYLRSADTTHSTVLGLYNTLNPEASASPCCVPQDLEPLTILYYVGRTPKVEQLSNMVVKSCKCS
Description: as §1

B1: bispecific antibody A237 (bispecific antibody)
heavy: QVQLVQSGAEVKKPGASVKVSCKASGYTFTSYGLSWVRQAPGQGLEWMGWIIPYNGNTNSAQKLQGRVTMTTDTSTSTAYMELRSLRSDDTAVYFCARDRDYGVNYDAFDIWGQGTMVTVSSGGGGSGGGGSGGGGSEVQLLESGGGLVQPGGSLRLSCAASGFTFSSYAMSWVRQAPGKGLEWVSGITGSGGSTYYADSVKGRFTISRDNSKNTLYLQMNSLRAEDTAVYYCAKDPGTTVIMSWFDPWGQGTLVTVSSASTKGPSVFPLAPCSRSTSESTAALGCLVKDYFPEPVTVSWNSGALTSGVHTFPAVLQSSGLYSLSSVVTVPSSNFGTQTYTCNVDHKPSNTKVDKTVERKCCVECPPCPAPPVAGPSVFLFPPKPKDTLMISRTPEVTCVVVDVSHEDPEVQFNWYVDGVEVHNAKTKPREEQFNSTFRVVSVLTVVHQDWLNGKEYKCKVSNKGLPAPIEKTISKTKGQPREPQVYTLPPSREEMTKNQVSLTCLVKGFYPSDIAVEWESNGQPENNYKTTPPMLDSDGSFFLYSKLTVDKSRWQQGNVFSCSVMHEALHNHYTQKSLSLSPGK
light: not shown
For B1, the Kd [1] was ~0.001 nM and the Kd (human Activin A) was ~0.3 nM.

B2: bispecific antibody A241 (bispecific antibody, human IgG2, kappa)
heavy: QVQLVQSGAEVKKPGSSVKVSCKASGYTFSSNVISWVRQAPGQGLEWMGGVIPIVDIANYAQRFKGRVTITADESTSTTYMELSSLRSEDTAVYYCASTLGLVLDAMDYWGQGTLVTVSSGGGGSGGGGSGGGGSEVQLLESGGGLVQPGGSLRLSCAASGFTFSSYAMSWVRQAPGKGLEWVSGITGSGGSTYYADSVKGRFTISRDNSKNTLYLQMNSLRAEDTAVYYCAKDPGTTVIMSWFDPWGQGTLVTVSSASTKGPSVFPLAPCSRSTSESTAALGCLVKDYFPEPVTVSWNSGALTSGVHTFPAVLQSSGLYSLSSVVTVPSSNFGTQTYTCNVDHKPSNTKVDKTVERKCCVECPPCPAPPVAGPSVFLFPPKPKDTLMISRTPEVTCVVVDVSHEDPEVQFNWYVDGVEVHNAKTKPREEQFNSTFRVVSVLTVVHQDWLNGKEYKCKVSNKGLPAPIEKTISKTKGQPREPQVYTLPPSREEMTKNQVSLTCLVKGFYPSDIAVEWESNGQPENNYKTTPPMLDSDGSFFLYSKLTVDKSRWQQGNVFSCSVMHEALHNHYTQKSLSLSPGK
light: ETVLTQSPGTLSLSPGERATLSCRASQSLGSSYLAWYQQKPGQAPRLLIYGASSRAPGIPDRFSGSGSGTDFTLTISRLEPEDFAVYYCQQYADSPITFGQGTRLEIKGGGGSGGGGSGGGGSEIVLTQSPGTLSLSPGERATLSCRASQSVRGRYLAWYQQKPGQAPRLLIYGASSRATGIPDRFSGSGSGTDFTLTISRLEPEDFAVFYCQQYGSSPRTFGQGTKVEIKRTVAAPSVFIFPPSDEQLKSGTASVVCLLNNFYPREAKVQWKVDNALQSGNSQESVTEQDSKDSTYSLSSTLTLSKADYEKHKVYACEVTHQGLSSPVTKSFNRGEC
B2 was tested, and the Kd (human TGF-β1) was ~2 nM, the Kd (human TGF-β3) was ~0.3 nM and the Kd [1] was ~0.7 nM.

Reference: US20230391880A1 (published 2023)
